In the supplement of paper PMC12764529:
± gives the half width of the 95% confidence interval.

Assay: folding stability dG unfold (combined trypsin and chymotrypsin); higher = more stable
Method: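 Folding stability of de novo designed mini-proteins (<80 aa, no Cys; designed by TrROS, TrMRF, ProteinMPNN and the joint model) was measured by cDNA display proteolysis with trypsin and chymotrypsin. Each protease was used at 11 concentrations in a threefold dilution series plus a no-protease condition. K50 was inferred by Bayesian fitting of sequencing counts, and dG unfold was derived against a sequence-predicted unfolded-state K50 (Tsuboyama et al. method). Sequences shown include variable-length N-terminal GS-type padding (SAGGSAGG...) inside a display construct carrying a PA tag. Rows were kept only if the AF2 dimer inter-PAE was >15, to exclude likely homo-oligomers.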

| Sequence | folding stability dG unfold [kcal/mol] |
| --- | --- |
| SAGGSAGGSAMSVSVSSPENAEKLAKEIKEKNPNEIPKITKGSGSNSYTLTLPSGKNIKVSSSAGGSAGGSA [r18_154_JUSTAS] | < -1 |
| SAGGKAELAANPGVVRVEVELVDPSGPVALPTREYLYPEGDPAALRAAIEAEIPADLAVARVTFTRLGSAGG [r13_849_JUSTAS] | < -1 |
| SAGGSAGGSAGGSTLEEIREMAKQGKKFKIRNPGNNQEHEIRPDDLDDFRGSPISIEPVSAGGSAGGSAGGS [r4_157_TrROS] | < -1 |
| SAGGNAEEIRDITRDIAEKHGGEVKDVEVEPEPNGRKELTFRMKEDPNTRIKITVDNNEIKITSIQPSAGGS [r8_432_TrROS] | < -1 |
| SAGGSAGGSTMEKLQDKAKELGPNVSVEPSQDGPDSIKITFDPDHPKKIKDIAKEYGIKVQIYSAGGSAGGS [r12_74_TrROS] | < -1 |
| SAGGSAGGSPPKPITIMAPYDSPEEAMDKAEEIADELANEGYDIKDVEIEYHPNNGYAMVRIRSAGGSAGGS [r20_155_TrROS] | < -1 |
| SAGGSAGGSAGGSMKIIEVPGPPEEVIEKIKEENPNAKVLSVEEDPEGGVTFKIEIEEKSAGGSAGGSAGGS [r4_95_JUSTAS] | < -1 |
| SAGGSAGGSRTIHIPHNAMDKMPPSFEKKIRELADELNIDIEHNNNWMTIPVKGLTEEAIKEFSAGGSAGGS [r12_945_TrROS] | < -1 |
| SAGMDKPVATFTRQKTPDGTEVLHVTVTTTAAGTGTTDPSTFTFPAGSDPAVVAAKVRAAGVAAVAFEPSAG [r5_37_JUSTAS] | < -1 |
| SAGGSMTELIPTPPSATTLNVTKTVPDPRTGTTVTTNVTVEVVPEGDGYVATVYYDPSGRPVKRSLSAGGSA [r2_123_JUSTAS] | < -1 |
| SAGGSAGGSAGMTPLYFRVERVDPASGGSLEEVVEIDPAEREAVVEELRAVPGLVRVELVSAGGSAGGSAGG [r17_438_JUSTAS] | < -1 |
| SAGGSAGGSAGKKKPPPKVTLVIRVKMSPEEVKKLAELFPDAKVTVTYDEETGLLTVTFDSAGGSAGGSAGG [r17_254_TrROS_Hall] | > 6 |
| SAGGPAEFPEGPGVVVGYTYPPDGKPAKWAIPFPDATPEEARERLAKFAEALPIPGAKVVIDDIKPGPSAGG [r13_29_TrMRF] | < -1 |
| SAMDAKELAEEIADEFAPKFPNIKPKKVTVEPTGDHYEGNIEWEMPNGRPMRVEVTVEKDGNIEDIEFHSAG [r14_719_TrROS] | < -1 |
| SAGGSAGGSEVTEFTGTIEDPNSSTVIEVKTKVIPLPNGTPVTITETTTTTGEKTTTTTTTFASAGGSAGGS [r12_619_JUSTAS] | < -1 |
| SAGIKPGDPLIIKFNFPPEARDKIKKLLEDPGFTYENDPDKGSVSIVFPAADVDRLQDLPGISEIVPVSAGG [r19_212_TrROS] | < -1 |
| SAGGMVTIEITDIPEDDPEKAIETAKELVEKIKKEGPPLKVKIKGNTPVFEEVAAELKKLGVETDLESAGGS [r16_450_JUSTAS] | < -1 |
| SAGGSAGGSAGPLVLVKELKSSRPVFDKNGKLIGTKTEVLVEAELLAPPANPDDPRYKETSAGGSAGGSAGG [r11_131_TrMRF] | < -1 |
| SAGGSAKITIEPVKDQYRIEIKIPVFDPNGKKDPIEIPMYMPPDDPERMKDQILDWAREKNPDLIISAGGSA [r15_1050_TrROS] | < -1 |

| Sequence | folding stability dG unfold [kcal/mol] |
| --- | --- |
| SAGGSAGGSAGIKIPSNYKYKIEKSKDDYYEIYTEDKNKKFIVPKNAPIVVFEDNTVYVKSAGGSAGGSAGG [r17_49_TrMRF] | < -1 |
| SAGGSATIKIPPGMDMEIDDVELNPDDKTVEVEITFGDGPMKARITPNGQKEIEMPNGQPFTIPIDSAGGSA [r15_111_TrROS] | < -1 |
| MTRTIVAEDMSIEEVKERIEALGAAEPEKGTTVVVEYPGNPEELKKLPIDKIEPREEPERESLVATKTFPAS [r1_467_JUSTAS] | < -1 |
| SAGGSAPVIPVKSEEEAKEVAKAASPDKDLLFKYPKGNVKLITIDPKNGPKITVKETLPVSPEKALSAGGSA [r15_577_JUSTAS] | < -1 |
| SMTVITAEPNLPPEKKAAVEAVRERVKANPDKPMDADEIKEFIKEEFGDPNFTILKVTIIPKAPPVVALSSA [r9_620_JUSTAS] | < -1 |
| SAGGPVYFRIKVEQRRPDPENGEPERREQTVSIPFEYDPDNGMPADEFAEELAKTLPPGIREVEIEPFSAGG [r13_335_TrROS] | < -1 |
| SAGGSAGGSAGAPDEPIQITMRLKYPDGQKREHNTPFPPGKDIEIKNMPPGAKIENIEITSAGGSAGGSAGG [r11_181_TrROS] | < -1 |
| SAGGPNKKIKIVMDPDDPNMPMSEIANFMQKEGFEPVEMVPADNLPPEKAREEAEEEGKPVIEIPFNSAGGS [r16_94_TrROS] | < -1 |
| SAGGSAGGSAMTSVKRSSGSWSITITTPDSTTTTTKAATEEEVQAEVEELKKPGIKVELSPESAGGSAGGSA [r18_103_JUSTAS] | < -1 |
| SAGGSAGGSAGGSGSFDPENGTIEIRVPKTKKPVKIPFPEEEADEFAENLPPNLDRVHFSAGGSAGGSAGGS [r4_282_TrROS] | < -1 |
| SAGGSAGGSAGMKIFKSKEEAKKAAGPPVELKVKKVPPGSIGKGDPNDTAYLVELKPKEKSAGGSAGGSAGG [r11_168_TrMRF] | < -1 |
| SAGGSAGGSPYKEIPFRFPENGYKVHIKKDPNGSVKIYVMGPNMRERTIPPDEPLEIEPGARLSAGGSAGGS [r12_1003_TrROS] | -0.46 ± 0.63 |
| SAGGSAGGSAPDMYRIRAKFPDGKPFPIEFNPEDGQIEVWDGNKEQTIPPGKPIKIDKIEPVSAGGSAGGSA [r18_144_TrROS] | < -1 |
| SAGGSTVTVEVETEEEAEALLQGLPELEEVVVVIPGEGEPVEKPVKIEPPAPGVLGETPLPRPSPRLLSAGG [r13_183_JUSTAS] | < -1 |
| SASVVDLETDGSMSVEEVVERFKKENPNVKEVKVTTEALPDEPKYRITLTITEDKGKTEENLKKTKELKSAG [r14_645_JUSTAS] | < -1 |
| SAGGGSSMPRRRALPDGTALETTLGDSVATVRATRYVGDRPLETAERVLPDVPPDVDAEVDFDLPPGSAGGS [r8_155_JUSTAS] | < -1 |
| SAGGSAGGSAGGSVTVSLSELKKILKEKGNPGTVEEILEDPNVSVSKDPNSSNEIVTIPGSAGGSAGGSAGG [r7_180_JUSTAS] | < -1 |
| SAGGMVETTETVVEPGRIRVERRVTLPDGTEVEEVEEVPPAAGGVWEVRSRVRRGEGEEEVARREVAPSAGG [r13_728_JUSTAS] | < -1 |
| SAGGSAGGSAGGNTRYIPMPPDDIEELIEEAKDEGIDNVIIHNPENGRWIKITGDKIKPVSAGGSAGGSAGG [r7_564_TrROS] | < -1 |

| Sequence | folding stability dG unfold [kcal/mol] |
| --- | --- |
| DFLELPGGWKVTEILEKKRLSDGTVEIKAVVKDPNNPVETEIDVKIPIPEVPEVPVEVRLIPGTGELIGILS [r1_411_JUSTAS] | < -1 |
| SAGGMITVLEEEVEERGDELVVTRLVRVSSEEDVEALANDGVPDTAREVRRLPDGTLLAELTETVPPPSAGG [r13_506_JUSTAS] | < -1 |
| SAGGSANFKIRMPNGRPMDIQPDPEGETWVIRMPGGHIIPIEIKDGKLKDIKILPGMPPNWSIEPVSAGGSA [r15_709_TrROS] | < -1 |
| SAGGSAGGSAMTLRDIARELAEKHGEPYKIKISHPNGRKREFNPDDLDRIPPGPWEVEIERPSAGGSAGGSA [r18_394_TrROS] | < -1 |
| SAPEVSVEEEEEEITDPVTGEKTTVYKITTKITLPDPNSSKKVTLTKPVIVEKTKSGTKVTEKPVFLLLSAG [r14_339_JUSTAS] | < -1 |
| SAGGSAGGMELVSEERLPDGSRRFTVRVDPDKSLSLTLPDAGEPVAATVTETFPEEGLVTVELASAGGSAGG [r6_177_JUSTAS] | < -1 |
| SAGPNPGEPLTVVTETSTEKVPTSSGRAVPVTTSTASNGTVIEKFPDGKVLVFEPGKGPENKTVLPEVSAGG [r19_199_JUSTAS] | < -1 |
| SAGGSAGGSGKIPKLIKEIGIPYEVKSIKVTTGKDDKPTVEIEFLPDVPEEDREKIKKAIEEESAGGSAGGS [r12_352_TrMRF] | < -1 |
| SAGGPDDYPIRIAVYPPDGEIKEEITIPNNWTIKYFPNDDPRIMIQDPGNGETVPVKTPEDIKDLIQSAGGS [r8_232_TrROS] | < -1 |
| MRRTLETDEIRRLEIELRPAPGRTAVLDAVVELRDGTPVPLPFPLRLESGRLDPATVERAEREAVEEALARS [r1_124_TrMRF] | < -1 |
| SAGGSKDKKMPPEQAKQVQVRVEIPIRVYRPGDGGEPHDFPIEIWGPMKSPEEADKEVNDAIDEFFSAGGSA [r2_244_TrROS] | < -1 |
| SAGAPVVEKKRTIPSPLGAPAYLVFVPEEDRIVFTRPGSGEPVELSVPPDSEVEVPAPPSGSLTYRWESAGG [r19_118_JUSTAS] | < -1 |
| SAGGSPKIQIDQYNPNDYYVRIEYPGNGNTHEIPFRGSKGELAKKLEDEAEEHNMPIDVEIYPPDDSAGGSA [r2_161_TrROS] | < -1 |
| SAGGSAGGSANPRTITVQYPVDPNGKPLPAEELADELQNEPFKVTDPQWNPEDGYVEDTIEVSAGGSAGGSA [r18_466_TrROS] | < -1 |
| SAGGSAGGSAIGLKDAVPGIENVAKALGAKAKAELKVLPDGKPYLVAKLYKDGKPLGELKVDSAGGSAGGSA [r18_369_TrMRF] | < -1 |
| SAGGSAGGSAGGMTKTYVTPVSPDVSEEEIKEKLAPEVSSVEVERDEESGTVTITTTLDSAGGSAGGSAGGS [r10_1007_JUSTAS] | < -1 |
| SAGGSAGGSSMSFSFSERRDGKEYSVSVTTAVTPLTLPNGTLRTLTTPTTTVTDPSGKVLSTSSAGGSAGGS [r20_224_JUSTAS] | < -1 |
| SAGGSAGGSAAPIPPDQSATSLTLLPDGTVRKTTTTYPPPEFVTTTTTTIPISPEEGAAAGSAGGSAGGSAG [r3_437_JUSTAS] | < -1 |
| SAGGSAGGSAGGGSVHMPPLINWQEEEFEYESEEPVHIKRLVYKHPYSNEVEEEIEILLSAGGSAGGSAGGS [r10_881_JUSTAS] | < -1 |
